Test results taken from the supplement of paper PMC9876800.

System: peptide library, one residue held at a place counted from the S/T acceptor
Experiment: relative phosphorylation of the sub-library (ratio to the mean residue at this position); human; higher = residue favoured
Outline: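 Relative sub-library phosphorylation is a ratio to the mean residue at the same position. Purified recombinant kinases were incubated under kinase-specific conditions with biotinylated degenerate peptide sub-libraries, each fixing one residue at one position around a central Ser/Thr, using 50 μM peptide and 50 μM ATP spiked with γ-32P-ATP for 90 min. Spots captured on streptavidin membranes were phosphorimaged and quantified by densitometry.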

Chain of ACVR1B, construct: aa150-end (P36896 150-505, looked up): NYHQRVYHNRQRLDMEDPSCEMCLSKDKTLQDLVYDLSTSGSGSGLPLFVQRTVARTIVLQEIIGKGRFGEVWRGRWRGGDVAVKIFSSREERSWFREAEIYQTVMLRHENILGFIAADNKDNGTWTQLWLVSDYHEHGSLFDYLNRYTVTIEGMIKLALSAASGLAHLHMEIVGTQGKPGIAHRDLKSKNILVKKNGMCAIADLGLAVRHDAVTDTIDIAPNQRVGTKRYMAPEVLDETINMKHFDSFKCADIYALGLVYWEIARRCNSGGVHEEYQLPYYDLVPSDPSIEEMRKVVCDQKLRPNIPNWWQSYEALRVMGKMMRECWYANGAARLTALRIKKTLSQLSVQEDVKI
Chain of AURKB, construct: Full length (Q96GD4 whole entry, looked up): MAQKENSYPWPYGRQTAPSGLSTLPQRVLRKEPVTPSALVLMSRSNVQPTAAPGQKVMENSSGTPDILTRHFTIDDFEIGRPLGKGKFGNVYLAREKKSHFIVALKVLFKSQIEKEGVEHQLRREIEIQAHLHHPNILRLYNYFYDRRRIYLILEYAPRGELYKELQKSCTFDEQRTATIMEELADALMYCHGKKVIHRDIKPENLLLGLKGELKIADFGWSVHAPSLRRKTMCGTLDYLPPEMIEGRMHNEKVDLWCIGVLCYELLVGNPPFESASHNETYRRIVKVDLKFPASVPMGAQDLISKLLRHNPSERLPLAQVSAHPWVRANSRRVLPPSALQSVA
Chain of AURKA, construct: Full length (O14965 whole entry, looked up): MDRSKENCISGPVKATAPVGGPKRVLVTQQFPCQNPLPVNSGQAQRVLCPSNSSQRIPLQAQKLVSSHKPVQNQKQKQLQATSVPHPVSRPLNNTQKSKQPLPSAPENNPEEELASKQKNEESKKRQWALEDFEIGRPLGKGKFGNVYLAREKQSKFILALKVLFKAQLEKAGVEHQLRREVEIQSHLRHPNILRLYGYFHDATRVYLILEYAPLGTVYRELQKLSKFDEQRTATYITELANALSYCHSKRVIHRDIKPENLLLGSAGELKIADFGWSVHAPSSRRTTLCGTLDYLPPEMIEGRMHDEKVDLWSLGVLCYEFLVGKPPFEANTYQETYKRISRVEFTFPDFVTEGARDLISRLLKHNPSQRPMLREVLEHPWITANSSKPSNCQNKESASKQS
Chain of BRSK2, construct: Full length (Q8IWQ3 whole entry, looked up): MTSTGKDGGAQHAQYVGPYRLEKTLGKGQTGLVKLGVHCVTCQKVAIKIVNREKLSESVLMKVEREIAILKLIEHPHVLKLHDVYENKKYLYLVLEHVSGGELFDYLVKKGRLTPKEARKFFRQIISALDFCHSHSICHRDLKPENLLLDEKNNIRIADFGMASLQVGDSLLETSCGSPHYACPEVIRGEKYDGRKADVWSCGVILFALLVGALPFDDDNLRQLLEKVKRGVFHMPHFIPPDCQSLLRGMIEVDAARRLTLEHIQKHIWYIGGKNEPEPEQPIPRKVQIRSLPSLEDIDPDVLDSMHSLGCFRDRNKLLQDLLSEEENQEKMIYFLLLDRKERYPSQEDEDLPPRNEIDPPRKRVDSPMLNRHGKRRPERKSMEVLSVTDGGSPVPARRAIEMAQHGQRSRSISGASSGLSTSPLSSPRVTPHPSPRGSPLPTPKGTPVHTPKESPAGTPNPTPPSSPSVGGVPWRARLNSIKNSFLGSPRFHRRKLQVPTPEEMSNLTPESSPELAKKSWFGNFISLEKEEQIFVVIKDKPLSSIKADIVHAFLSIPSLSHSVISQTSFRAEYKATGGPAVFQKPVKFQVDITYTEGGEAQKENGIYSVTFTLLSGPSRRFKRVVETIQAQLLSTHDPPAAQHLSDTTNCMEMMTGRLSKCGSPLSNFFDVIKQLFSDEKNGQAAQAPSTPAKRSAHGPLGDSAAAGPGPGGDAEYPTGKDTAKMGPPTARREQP

ACVR1B, construct: aa150-end (from UniProt P36896)
relative phosphorylation
Settings | at +1 | at +2 | at +3 | at +4 | at -1 | at -2 | at -3 | at -4 | at -5
A fixed | 0.754 | 1.35 | 0.905 | 1.06 | 0.833 | 0.721 | 0.953 | 0.891 | 1.03
D fixed | 1.17 | 1.11 | 1.11 | 1.24 | 1.05 | 1.58 | 1.35 | 1.55 | 1.12
E fixed | 1.75 | 0.847 | 1.54 | 1.19 | 1.32 | 6.31 | 1.52 | 1.26 | 0.838
F fixed | 1.09 | 1.01 | 1.19 | 0.997 | 0.896 | 0.497 | 1.03 | 1.02 | 1.13
G fixed | 0.796 | 0.995 | 1.22 | 0.798 | 0.65 | 0.801 | 1.12 | 1.03 | 0.975
H fixed | 0.749 | 0.809 | 0.948 | 0.968 | 1.16 | 0.606 | 1.02 | 0.997 | 1.24
I fixed | 1.21 | 1.13 | 1.06 | 0.855 | 1 | 0.622 | 0.855 | 0.874 | 0.837
K fixed | 0.542 | 0.649 | 0.605 | 0.896 | 0.747 | 0.483 | 0.798 | 0.987 | 1.11
L fixed | 1.05 | 1.22 | 1.01 | 0.818 | 1.33 | 0.597 | 0.85 | 0.936 | 0.931
M fixed | 1.33 | 0.865 | 1.04 | 0.967 | 1.45 | 0.497 | 0.998 | 1.06 | 0.968
N fixed | 0.774 | 0.902 | 0.741 | 0.975 | 0.963 | 0.716 | 0.96 | 0.954 | 1.01
P fixed | 0.691 | 1.17 | 1.14 | 1.42 | 0.762 | 0.549 | 0.947 | 0.94 | 0.939
Q fixed | 0.944 | 0.952 | 0.909 | 1.01 | 1.03 | 0.72 | 0.956 | 0.768 | 0.809
R fixed | 0.604 | 0.764 | 0.662 | 0.799 | 0.88 | 0.624 | 0.884 | 0.889 | 1.11
V fixed | 1.19 | 1.18 | 1.09 | 0.929 | 1.12 | 0.603 | 0.867 | 0.843 | 0.816
W fixed | 1.14 | 0.919 | 0.903 | 1.07 | 0.822 | 0.592 | 0.892 | 1.01 | 1.19
Y fixed | 1.23 | 1.13 | 0.95 | 1.01 | 0.991 | 0.49 | 0.995 | 0.998 | 0.953
pThr fixed | 2.93 | 1.06 | 0.942 | 1.36 | 0.888 | 1.36 | 1.34 | 0.896 | 1.1
pTyr fixed | 3.57 | 1.77 | 1.28 | 1.51 | 1.27 | 0.679 | 1.02 | 1.26 | 1.03

AURKA, construct: Full length (from UniProt O14965)
relative phosphorylation
Settings | at +1 | at +2 | at +3 | at +4 | at -1 | at -2 | at -3 | at -4 | at -5
A fixed | 0.474 | 1 | 0.906 | 0.863 | 0.683 | 0.209 | 0.665 | 1.08 | 1.08
D fixed | 1.14 | 0.993 | 0.822 | 0.906 | 1.39 | 0.274 | 0.606 | 1.4 | 1
E fixed | 0.796 | 1.03 | 0.851 | 1.1 | 1.56 | 0.257 | 0.85 | 0.963 | 1.06
F fixed | 1.83 | 0.958 | 1.25 | 0.755 | 0.884 | 0.203 | 0.574 | 0.725 | 0.83
G fixed | 0.647 | 1.76 | 1.48 | 1.05 | 0.689 | 0.32 | 1.38 | 1.23 | 1.18
H fixed | 0.665 | 1.3 | 1.32 | 1.18 | 1.09 | 0.341 | 0.964 | 0.952 | 1.08
I fixed | 1.66 | 1.03 | 0.865 | 0.931 | 0.637 | 0.162 | 0.46 | 0.706 | 0.874
K fixed | 0.241 | 0.324 | 0.844 | 1.19 | 0.707 | 1.32 | 1.58 | 1.35 | 1.38
L fixed | 2.05 | 0.784 | 0.812 | 0.649 | 1.32 | 0.182 | 0.367 | 0.766 | 0.753
M fixed | 1.76 | 0.832 | 0.752 | 1 | 1.38 | 0.176 | 0.541 | 0.818 | 0.722
N fixed | 0.852 | 0.649 | 0.798 | 1.26 | 1.15 | 0.345 | 0.857 | 1.04 | 1.2
P fixed | 0.211 | 0.78 | 1.3 | 0.969 | 0.748 | 0.289 | 0.883 | 0.905 | 0.738
Q fixed | 0.735 | 0.629 | 0.843 | 1.06 | 1.09 | 0.608 | 0.667 | 0.908 | 0.802
R fixed | 0.425 | 0.509 | 0.821 | 1.24 | 1.16 | 11.7 | 4.83 | 1.71 | 1.67
V fixed | 1.11 | 0.766 | 0.775 | 0.682 | 0.601 | 0.163 | 0.425 | 0.699 | 0.759
W fixed | 1.26 | 0.881 | 1.2 | 1.22 | 0.587 | 0.232 | 0.779 | 0.966 | 0.906
Y fixed | 1.14 | 2.77 | 1.36 | 0.948 | 1.33 | 0.185 | 0.574 | 0.782 | 0.964
pThr fixed | 1.61 | 1.26 | 1.07 | 1.53 | 0.588 | 0.374 | 0.879 | 0.972 | 1.04
pTyr fixed | 0.836 | 1.53 | 1.74 | 1.43 | 2.24 | 0.356 | 1 | 0.962 | 1.3

AURKB, construct: Full length (from UniProt Q96GD4)
relative phosphorylation
Settings | at +1 | at +2 | at +3 | at +4 | at -1 | at -2 | at -3 | at -4 | at -5
A fixed | 0.803 | 0.959 | 0.784 | 0.784 | 0.651 | 0.28 | 0.727 | 1.01 | 1.08
D fixed | 0.673 | 0.507 | 0.523 | 0.986 | 0.489 | 0.176 | 0.485 | 0.629 | 0.734
E fixed | 0.611 | 0.427 | 0.498 | 0.727 | 0.433 | 0.183 | 0.422 | 0.653 | 0.511
F fixed | 1.34 | 1.05 | 1.35 | 0.856 | 0.678 | 0.247 | 0.633 | 0.724 | 0.867
G fixed | 1.11 | 1.59 | 1.3 | 1.06 | 0.553 | 0.381 | 0.954 | 1.17 | 1.24
H fixed | 0.933 | 1.6 | 1.51 | 1.09 | 0.971 | 0.542 | 1.02 | 1.03 | 1.06
I fixed | 1.21 | 0.911 | 0.957 | 0.869 | 0.735 | 0.217 | 0.553 | 0.709 | 0.855
K fixed | 0.78 | 0.77 | 0.955 | 1.13 | 2.06 | 2.28 | 2.2 | 1.8 | 1.81
L fixed | 1.49 | 0.948 | 1.14 | 0.989 | 1.23 | 0.25 | 0.554 | 0.738 | 0.779
M fixed | 1.59 | 0.864 | 0.901 | 1.06 | 0.97 | 0.243 | 0.661 | 0.829 | 0.786
N fixed | 1.33 | 1.04 | 0.981 | 1.08 | 0.788 | 0.377 | 0.784 | 0.844 | 0.966
P fixed | 0.212 | 1.07 | 1.1 | 1.32 | 0.917 | 0.327 | 0.9 | 0.953 | 0.985
Q fixed | 1.18 | 1.13 | 0.923 | 1.32 | 1.08 | 0.528 | 0.775 | 0.849 | 0.911
R fixed | 1.05 | 0.972 | 0.968 | 1.01 | 2.98 | 10.2 | 4.37 | 2.72 | 1.9
V fixed | 0.82 | 0.897 | 0.844 | 0.823 | 0.827 | 0.207 | 0.564 | 0.687 | 0.762
W fixed | 0.932 | 1.05 | 1.23 | 1.17 | 0.605 | 0.287 | 0.735 | 0.855 | 0.931
Y fixed | 0.922 | 1.22 | 1.05 | 0.734 | 1.04 | 0.276 | 0.665 | 0.798 | 0.831
pThr fixed | 0.88 | 0.581 | 0.555 | 1.08 | 0.413 | 0.314 | 0.591 | 0.691 | 0.716
pTyr fixed | 0.59 | 0.435 | 0.847 | 0.784 | 0.461 | 0.272 | 0.62 | 0.556 | 0.66

BRSK2, construct: Full length (from UniProt Q8IWQ3)
relative phosphorylation
Settings | at +1 | at +2 | at +3 | at +4 | at -1 | at -2 | at -3 | at -4 | at -5
A fixed | 0.653 | 0.569 | 0.726 | 0.598 | 1.07 | 1.91 | 0.829 | 1.14 | 1.01
D fixed | 0.341 | 0.505 | 1.34 | 0.41 | 0.539 | 0.816 | 0.264 | 0.367 | 0.357
E fixed | 0.396 | 0.471 | 0.574 | 0.299 | 0.433 | 0.659 | 0.257 | 0.435 | 0.355
F fixed | 2.02 | 1.69 | 1.95 | 1.3 | 0.867 | 1.19 | 0.728 | 0.686 | 1.2
G fixed | 0.53 | 0.464 | 0.85 | 0.562 | 1.3 | 1.35 | 0.703 | 1.16 | 0.964
H fixed | 0.802 | 1.49 | 1.25 | 0.718 | 1.18 | 1.05 | 1.31 | 1.3 | 0.842
I fixed | 1.03 | 0.679 | 0.518 | 3.23 | 0.674 | 0.591 | 0.389 | 0.522 | 1.08
K fixed | 0.624 | 0.337 | 0.775 | 0.727 | 1.53 | 1.04 | 2.71 | 2.04 | 1.35
L fixed | 1.17 | 0.739 | 0.609 | 3.06 | 0.956 | 0.564 | 0.427 | 0.58 | 1.27
M fixed | 3.01 | 0.951 | 0.675 | 1.47 | 1.14 | 0.664 | 0.589 | 0.881 | 1.33
N fixed | 0.925 | 1.03 | 2.68 | 0.671 | 1.02 | 0.843 | 0.681 | 0.752 | 0.599
P fixed | 0.203 | 0.489 | 0.403 | 0.654 | 1.55 | 0.833 | 0.687 | 1.58 | 0.954
Q fixed | 1.19 | 1.01 | 1.07 | 0.661 | 1.12 | 0.701 | 0.861 | 0.913 | 0.817
R fixed | 1.07 | 0.416 | 0.916 | 0.599 | 1.2 | 1.35 | 4.56 | 2.14 | 1.71
V fixed | 0.914 | 0.567 | 0.499 | 0.876 | 0.781 | 0.978 | 0.405 | 0.678 | 0.801
W fixed | 0.924 | 1.98 | 1.09 | 0.607 | 0.642 | 1.34 | 0.886 | 0.976 | 1.12
Y fixed | 1.2 | 3.62 | 1.08 | 0.559 | 1.01 | 1.13 | 0.711 | 0.844 | 1.24
pThr fixed | 0.909 | 0.54 | 0.378 | 0.452 | 0.332 | 0.451 | 0.401 | 0.624 | 0.6
pTyr fixed | 0.419 | 0.504 | 0.571 | 0.287 | 0.899 | 0.366 | 0.376 | 0.533 | 0.594
